In FireProtDB (doi:10.1110/ps.0237703):

B1: N107D, O00095 (parent)
chain: MKFLQVLPALIPAALAQTSCDQWATFTGNGYTVSNNLWGASAGSGFGCVTAVSLSGGASWHADWQWSGGQNNVKSYQNSQIAIPQKRTVNSISSMPTTASWSYSGSNIRANVAYDLFTAANPNHVTYSGDYELMIWLGKYGDIGPIGSSQGTVNVGGQSWTLYYGYNGAMQVYSFVAQTNTTNYSGDVKNFFNYLRDNKGYNAAGQYVLSYQFGTEPFTGSGTLNVASWTASIN

Variants of: B1
Conditions: Hypocrea jecorina; pH 8; Thermal; CD; Bis-Tris propane ammonium acetate 0.05 M 0.05 M; reversible: No; structure 1H8V; whole UniProt chain shown

Row | Variant | Tm [°C] | change of melting temperature, mutant - wild type (higher = more stable) [°C]
1 | MKFLQVLPALIPAALAQTSCDQWATFTGNGYTVSNNLWGASAGSGFGCVTAVSLSGGASWHADWQWSGGQNNVKSYQNSQIAIPQKRTVNSISSMPTTASWSYSGSDIRANVAYDLFTAANPNHVTYSGDYELMIWLGKYGDIGPIGSSQGTVNVGGQSWTLYYGYNGAMQVYSFVAQTNTTNYSGDVKNFFNYLRDNKGYNAAGQYVLSYQFGTEPFTGSGTLNVASWTASIN [N107D] | 54.9 | 0.5
2 | MKFLQVLPALIPAALAQTSCDQWATFTGNGYTVSNNLWGASAGSGFGCVTAVSLNGGASWHADWQWSGGQNNVKSYQNSQIAIPQKRTVNSISSMPTTASWSYSGSNIRANVAYDLFTAANPNHVTYSGDYELMIWLGKYGDIGPIGSSQGTVNVGGQSWTLYYGYNGAMQVYSFVAQTNTTNYSGDVKNFFNYLRDNKGYNAAGQYVLSYQFGTEPFTGSGTLNVASWTASIN [S55N] | 54.9 | 0.5
3 | MKFLQVLPALIPAALAQTSCDQWATFTGNGYTVSNNLWGASAGSGFGCVTAVSLSGGASWHADWQWSGGQNNVKSYQNSQIAIPQKRTVNSISSMPTTASWSYSGSNIRANVAYDLFTAANPNHVTYSGDYELMIWLGKYGDIGPIGSSQGTVNVGGQSWTLYYGYNGAMQVYSFVAQSNTTNYSGDVKNFFNYLRDNKGYNAAGQYVLSYQFGTEPFTGSGTLNVASWTASIN [T179S] | 54.7 | 0.3
4 | MKFLQVLPALIPAALAQTSCDQWATFTGNGYTVSNNLWGASAGSGFGCVTAVSLSGGASWHADWQWSGGQNNVKSYQNSQIAIPQKRTVNSISSMPTTASWSYSGSNIRANVAYDLFTAANPNHVTYSGDYELMIWLGKYGDIGPIGSSQGTVNVGGQTWTLYYGYNGAMQVYSFVAQTNTTNYSGDVKNFFNYLRDNKGYNAAGQYVLSYQFGTEPFTGSGTLNVASWTASIN [S159T] | 54.9 | 0.5
5 | MKFLQVLPALIPAALAQTSCDQYATFTGNGYTVSNNLWGASAGSGFGCVTAVSLSGGASWHADWQWSGGQNNVKSYQNSQIAIPQKRTVNSISSMPTTASWSYSGSNIRANVAYDLFTAANPNHVTYSGDYELMIWLGKYGDIGPIGSSQGTVNVGGQSWTLYYGYNGAMQVYSFVAQTNTTNYSGDVKNFFNYLRDNKGYNAAGQYVLSYQFGTEPFTGSGTLNVASWTASIN [W23Y] | 53.4 | -1
6 | MKFLQVLPALIPAALAQTSCDQWATFTGNGYTVSNNLWGASAGSGFGCVTAVSLSGGASWHADWQWSGGQNNVKSYQNVQIAIPQKRTVNSISSMPTTASWSYSGSNIRANVAYDLFTAANPNHVTYSGDYELMIWLGKYGDIGPIGSSQGTVNVGGQSWTLYYGYNGAMQVYSFVAQTNTTNYSGDVKNFFNYLRDNKGYNAAGQYVLSYQFGTEPFTGSGTLNVASWTASIN [S79V] | 53.6 | -0.8
7 | MKFLQVLPALIPAALAQTSCDQWATFTGNGYTVSNNLWGASAGSGFGCVTAVSLSGGASWHADWQWSGGQNNVKSYQNSQIAIPQKRTVNSISSMPTTASWSYSGSNIRANVAYDLFTAANPNHVTYSGDYELMIWLGKYGDIGPIGSSQGTVNVGGQSWTLYYGYNGAMQVYSFVAQTNTTSYSGDVKNFFNYLRDNKGYNAAGQYVLSYQFGTEPFTGSGTLNVASWTASIN [N183S] | 54.6 | 0.2
8 | MKFLQVLPALIPAALAQTSCDQWATFTGNGYTVSNNLWGASAGSGFGCVTAVSLSGAASWHADWQWSGGQNNVKSYQNSQIAIPQKRTVNSISSMPTTASWSYSGSNIRANVAYDLFTAANPNHVTYSGDYELMIWLGKYGDIGPIGSSQGTVNVGGQSWTLYYGYNGAMQVYSFVAQTNTTNYSGDVKNFFNYLRDNKGYNAAGQYVLSYQFGTEPFTGSGTLNVASWTASIN [G57A] | 56.9 | 2.5
9 | MKFLQVLPALIPAALAQTSCDQWATFTGNGYTVSNNLWGASAGSGFGCVTAVSLSGGASWHADWQWSGGQNNVKSYQNSQINIPQKRTVNSISSMPTTASWSYSGSNIRANVAYDLFTAANPNHVTYSGDYELMIWLGKYGDIGPIGSSQGTVNVGGQSWTLYYGYNGAMQVYSFVAQTNTTNYSGDVKNFFNYLRDNKGYNAAGQYVLSYQFGTEPFTGSGTLNVASWTASIN [A82N] | 54.5 | 0.1
10 | MKFLQVLPALIPAALAQTSCDQWATFTGNGYTVSNNLWGASAGSGFGCVTSVSLSGGASWHADWQWSGGQNNVKSYQNSQIAIPQKRTVNSISSMPTTASWSYSGSNIRANVAYDLFTAANPNHVTYSGDYELMIWLGKYGDIGPIGSSQGTVNVGGQSWTLYYGYNGAMQVYSFVAQTNTTNYSGDVKNFFNYLRDNKGYNAAGQYVLSYQFGTEPFTGSGTLNVASWTASIN [A51S] | 50.4 | -4
11 | MKFLQVLPALIPAALAQTSCDQWATFTGNGYTVSNNLWGASAGSGFGCVTVVSLSGGASWHADWQWSGGQNNVKSYQNSQIAIPQKRTVNSISSMPTTASWSYSGSNIRANVAYDLFTAANPNHVTYSGDYELMIWLGKYGDIGPIGSSQGTVNVGGQSWTLYYGYNGAMQVYSFVAQTNTTNYSGDVKNFFNYLRDNKGYNAAGQYVLSYQFGTEPFTGSGTLNVASWTASIN [A51V] | 62.1 | 7.7
12 | MKFLQVLPALIPAALAQTSCDQWATFSGNGYIVSNNLWGASAGSGFGCVTAVSLSGGASWHADWQWSGGQNNVKSYQNSQIAIPQKRTVNSISSMPTTASWSYSGSNIRANVAYDLFTAANPNHVTYSGDYELMIWLGKYGDIGPIGSSQGTVNVGGQSWTLYYGYNGAMQVYSFVAQTNTTNYSGDVKNFFNYLRDNKGYNAAGQYVLSYQFGTEPFTGSGTLNVASWTASIN [T27S T32I] | 55.5 | 1.1
13 | MKFLQVLPALIPAALAQTSCDQWATFTGNGYTVSNNLWGASAGSGFGCVTAVSLSGGASWHADWQWSGGQNNVKSYQNSQIAIPQKRTVNSIGSMPTTASWSYSGSNIRANVAYDLFTAANPNHVTYSGDYELMIWLGKYGDIGPIGSSQGTVNVGGQSWTLYYGYNGAMQVYSFVAQTNTTNYSGDVKNFFNYLRDNKGYNAAGQYVLSYQFGTEPFTGSGTLNVASWTASIN [S93G] | 54.5 | 0.1
14 | MKFLQVLPALIPAALAQTSCDQWATFTGNGYTVSNNLWGASAGSGFGCVTAVSLSGGASWHADWQWSGGQNNVKSYQNSQIAIPQKRTVNSISSMPTTASWSYSGSNIRANVAYDLFTAANPNHVTYSGDYELMIWLGKYGDIGPIGSSQGTVNVGGQSWTLYYGYNGAMQVYSFVAQTNTTNYSGDVKNFFNYLRDNKGYNAGGQYVLSYQFGTEPFTGSGTLNVASWTASIN [A204G] | 54.9 | 0.5
